Laboratory results reported in article PMC12087824.

Experiments:
[1] = molecular target: human IL-2 receptor chain beta (IL-2Rβ, CD122) (human) (UniProt P14784)
[2] = molecular target: human IL-2 receptor chain beta (IL-2Rβ, CD122) (human) (UniProt P14784); assay: BLI; human IL-2Rβ immobilised; Neo-2/15 WT at 20–2.5 nM

Sequence of human IL-2 receptor chain beta (IL-2Rβ, CD122) (human) (P14784 27-551): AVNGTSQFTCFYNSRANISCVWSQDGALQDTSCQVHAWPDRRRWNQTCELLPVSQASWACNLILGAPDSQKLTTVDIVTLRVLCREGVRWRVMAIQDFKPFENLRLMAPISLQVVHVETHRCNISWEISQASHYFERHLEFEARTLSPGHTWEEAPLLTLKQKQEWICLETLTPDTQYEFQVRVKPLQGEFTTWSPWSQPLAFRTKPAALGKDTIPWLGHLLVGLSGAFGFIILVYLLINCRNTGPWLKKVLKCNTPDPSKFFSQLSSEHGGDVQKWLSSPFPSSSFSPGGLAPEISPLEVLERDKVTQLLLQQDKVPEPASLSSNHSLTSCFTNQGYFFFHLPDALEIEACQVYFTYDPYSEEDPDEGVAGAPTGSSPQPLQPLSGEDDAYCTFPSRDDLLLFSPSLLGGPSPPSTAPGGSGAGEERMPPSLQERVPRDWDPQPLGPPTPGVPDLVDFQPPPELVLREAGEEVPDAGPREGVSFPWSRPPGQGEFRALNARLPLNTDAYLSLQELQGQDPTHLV

EC50 of STAT5 phosphorylation (pSTAT5) in purified splenic T cells of balb-c mice, ex vivo, serial dilutions [1]: 4.1 pM
Kd [2]: 2.5 nM
Substance: neoleukin-2/15 (Neo-2/15) WT (designed binder)
